In article PMC3388945:

Target: GST-TFIIB fusion protein (UniProt Q00403)
Assay: pull-down

UniProt Q00403, sequence (Q00403 whole entry, the tested form may be a part): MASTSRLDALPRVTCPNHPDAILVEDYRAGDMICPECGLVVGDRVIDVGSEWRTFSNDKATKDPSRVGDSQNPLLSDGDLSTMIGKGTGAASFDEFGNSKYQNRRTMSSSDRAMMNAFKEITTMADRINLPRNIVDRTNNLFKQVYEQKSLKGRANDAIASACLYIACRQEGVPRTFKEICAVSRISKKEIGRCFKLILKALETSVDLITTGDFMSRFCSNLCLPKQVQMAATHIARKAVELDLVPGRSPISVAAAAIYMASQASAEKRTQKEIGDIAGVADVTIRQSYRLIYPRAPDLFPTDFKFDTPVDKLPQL

Substance | percent of input precipitated
35S-IR2P(78-397)-NH (domain or fragment) | 12 % of input
35S-IR2P(78-438)-NH (domain or fragment) | 13 % of input
